± gives the standard error. Fewer inactive variants are shown than the library holds.
B1: glmS ribozyme (parent)
chain: AUAAAAGCGCCAGAACUACAGAAAUGUAGUUGACGAGGAGGAGGUUUAUCGAAUUUUCGGCGGAUGCCUCCAAA

What was measured:
Conditions in all cases: with glucosamine-6-phosphate
glucosamine-6-phosphate [1] = variants of: B1; test: self-cleavage kobs at 40 uM GlcN6P; higher = faster cleavage; RNA array
Outline: (§1)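 Over ~14 h at 37 °C, tiles were imaged as glucosamine-6-phosphate (40 μM to 10 mM) in HEPES/KCl/Mg(OAc)2 buffer flowed across sequenced MiSeq chips. The chips carried barcoded ribozyme variants transcribed in situ by E. coli RNA polymerase and tracked with a hybridised Cy3 probe. After normalisation to baseline and to non-cleaving reference variants, one- or two-exponential decay fits of per-tile medians gave kobs. kcat and KM followed from weighted Michaelis–Menten fits across concentrations.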

glucosamine-6-phosphate [2] = variants of: B1; test: self-cleavage kobs at 160 uM GlcN6P; higher = faster cleavage; RNA array
Outline: as §1

glucosamine-6-phosphate [3] = variants of: B1; test: self-cleavage kobs at 640 uM GlcN6P; higher = faster cleavage; RNA array
Outline: as §1

glucosamine-6-phosphate [4] = variants of: B1; test: self-cleavage kobs at 2500 uM GlcN6P; higher = faster cleavage; RNA array
Outline: as §1

glucosamine-6-phosphate [5] = variants of: B1; test: self-cleavage kobs at 10000 uM GlcN6P; higher = faster cleavage; RNA array
Outline: as §1

A14U C16U
self-cleavage kobs at 40 uM GlcN6P (glucosamine-6-phosphate [1]): 0.00025 ± 3.2e-05 s⁻¹ | self-cleavage kobs at 160 uM GlcN6P (glucosamine-6-phosphate [2]): 0.000555 ± 0.00011 s⁻¹ | self-cleavage kobs at 640 uM GlcN6P (glucosamine-6-phosphate [3]): 0.00297 ± 0.00042 s⁻¹ | self-cleavage kobs at 2500 uM GlcN6P (glucosamine-6-phosphate [4]): 0.00183 ± 0.0004 s⁻¹ | self-cleavage kobs at 10000 uM GlcN6P (glucosamine-6-phosphate [5]): 0.00789 ± 0.001 s⁻¹

A6C A12U G29A C68G
self-cleavage kobs at 40 uM GlcN6P (glucosamine-6-phosphate [1]): < 1e-05 s⁻¹ | self-cleavage kobs at 640 uM GlcN6P (glucosamine-6-phosphate [3]): < 1e-05 s⁻¹ | self-cleavage kobs at 2500 uM GlcN6P (glucosamine-6-phosphate [4]): < 1e-05 s⁻¹

G9C C10A U56A
self-cleavage kobs at 40 uM GlcN6P (glucosamine-6-phosphate [1]): < 1e-05 s⁻¹ | self-cleavage kobs at 640 uM GlcN6P (glucosamine-6-phosphate [3]): < 1e-05 s⁻¹ | self-cleavage kobs at 2500 uM GlcN6P (glucosamine-6-phosphate [4]): < 1e-05 s⁻¹

A15G C67U
self-cleavage kobs at 40 uM GlcN6P (glucosamine-6-phosphate [1]): 0.000329 ± 5.2e-05 s⁻¹ | self-cleavage kobs at 160 uM GlcN6P (glucosamine-6-phosphate [2]): 0.000674 ± 0.00013 s⁻¹ | self-cleavage kobs at 640 uM GlcN6P (glucosamine-6-phosphate [3]): 0.00169 ± 0.00028 s⁻¹ | self-cleavage kobs at 2500 uM GlcN6P (glucosamine-6-phosphate [4]): 0.00538 ± 0.0014 s⁻¹ | self-cleavage kobs at 10000 uM GlcN6P (glucosamine-6-phosphate [5]): 0.00828 ± 0.0017 s⁻¹

A6G A42C C71U
self-cleavage kobs at 40 uM GlcN6P (glucosamine-6-phosphate [1]): < 1e-05 s⁻¹ | self-cleavage kobs at 640 uM GlcN6P (glucosamine-6-phosphate [3]): < 1e-05 s⁻¹

G7C G29C G35U
self-cleavage kobs at 40 uM GlcN6P (glucosamine-6-phosphate [1]): < 1e-05 s⁻¹ | self-cleavage kobs at 640 uM GlcN6P (glucosamine-6-phosphate [3]): < 1e-05 s⁻¹ | self-cleavage kobs at 10000 uM GlcN6P (glucosamine-6-phosphate [5]): < 1e-05 s⁻¹

A6U G7C C8G G38U
self-cleavage kobs at 40 uM GlcN6P (glucosamine-6-phosphate [1]): < 1e-05 s⁻¹ | self-cleavage kobs at 640 uM GlcN6P (glucosamine-6-phosphate [3]): < 1e-05 s⁻¹

G43C G44U C58U
self-cleavage kobs at 40 uM GlcN6P (glucosamine-6-phosphate [1]): < 1e-05 s⁻¹ | self-cleavage kobs at 2500 uM GlcN6P (glucosamine-6-phosphate [4]): < 1e-05 s⁻¹

C10A G32A G51A
self-cleavage kobs at 40 uM GlcN6P (glucosamine-6-phosphate [1]): < 1e-05 s⁻¹

U46G A52G C61A
self-cleavage kobs at 40 uM GlcN6P (glucosamine-6-phosphate [1]): < 1e-05 s⁻¹

A15C A33C C50G C61G
self-cleavage kobs at 40 uM GlcN6P (glucosamine-6-phosphate [1]): 0.000147 ± 3.9e-05 s⁻¹ | self-cleavage kobs at 10000 uM GlcN6P (glucosamine-6-phosphate [5]): 0.000196 ± 3.4e-05 s⁻¹

C10A A39U U49C
self-cleavage kobs at 40 uM GlcN6P (glucosamine-6-phosphate [1]): < 1e-05 s⁻¹ | self-cleavage kobs at 10000 uM GlcN6P (glucosamine-6-phosphate [5]): < 1e-05 s⁻¹

C11U A33U C61G
self-cleavage kobs at 40 uM GlcN6P (glucosamine-6-phosphate [1]): < 1e-05 s⁻¹

A15C U30G
self-cleavage kobs at 40 uM GlcN6P (glucosamine-6-phosphate [1]): 0.00258 ± 0.00062 s⁻¹ | self-cleavage kobs at 160 uM GlcN6P (glucosamine-6-phosphate [2]): 0.00591 ± 0.0015 s⁻¹ | self-cleavage kobs at 640 uM GlcN6P (glucosamine-6-phosphate [3]): 0.0305 ± 0.0089 s⁻¹ | self-cleavage kobs at 2500 uM GlcN6P (glucosamine-6-phosphate [4]): 0.0288 ± 0.011 s⁻¹ | self-cleavage kobs at 10000 uM GlcN6P (glucosamine-6-phosphate [5]): 0.153 ± 0.058 s⁻¹

U54A U69C
self-cleavage kobs at 40 uM GlcN6P (glucosamine-6-phosphate [1]): 0.000835 ± 0.00028 s⁻¹ | self-cleavage kobs at 160 uM GlcN6P (glucosamine-6-phosphate [2]): 0.000323 ± 8.9e-05 s⁻¹ | self-cleavage kobs at 640 uM GlcN6P (glucosamine-6-phosphate [3]): 0.000282 ± 6e-05 s⁻¹ | self-cleavage kobs at 2500 uM GlcN6P (glucosamine-6-phosphate [4]): 0.000214 ± 6.2e-05 s⁻¹ | self-cleavage kobs at 10000 uM GlcN6P (glucosamine-6-phosphate [5]): 0.000426 ± 0.00011 s⁻¹

G9A A33C
self-cleavage kobs at 40 uM GlcN6P (glucosamine-6-phosphate [1]): < 1e-05 s⁻¹ | self-cleavage kobs at 160 uM GlcN6P (glucosamine-6-phosphate [2]): < 1e-05 s⁻¹ | self-cleavage kobs at 640 uM GlcN6P (glucosamine-6-phosphate [3]): < 1e-05 s⁻¹ | self-cleavage kobs at 2500 uM GlcN6P (glucosamine-6-phosphate [4]): < 1e-05 s⁻¹ | self-cleavage kobs at 10000 uM GlcN6P (glucosamine-6-phosphate [5]): < 1e-05 s⁻¹

C61U U65A
self-cleavage kobs at 40 uM GlcN6P (glucosamine-6-phosphate [1]): < 1e-05 s⁻¹ | self-cleavage kobs at 640 uM GlcN6P (glucosamine-6-phosphate [3]): < 1e-05 s⁻¹ | self-cleavage kobs at 10000 uM GlcN6P (glucosamine-6-phosphate [5]): < 1e-05 s⁻¹

G9C C58G C68A
self-cleavage kobs at 40 uM GlcN6P (glucosamine-6-phosphate [1]): < 1e-05 s⁻¹

G7U A48U G60C
self-cleavage kobs at 40 uM GlcN6P (glucosamine-6-phosphate [1]): < 1e-05 s⁻¹

G32A A53U U65C
self-cleavage kobs at 40 uM GlcN6P (glucosamine-6-phosphate [1]): < 1e-05 s⁻¹ | self-cleavage kobs at 160 uM GlcN6P (glucosamine-6-phosphate [2]): < 1e-05 s⁻¹ | self-cleavage kobs at 640 uM GlcN6P (glucosamine-6-phosphate [3]): < 1e-05 s⁻¹

A33C G41C U47C A53G U54C U65G C70U
self-cleavage kobs at 40 uM GlcN6P (glucosamine-6-phosphate [1]): < 1e-05 s⁻¹ | self-cleavage kobs at 10000 uM GlcN6P (glucosamine-6-phosphate [5]): < 1e-05 s⁻¹

G29U U30A U31G A53U
self-cleavage kobs at 40 uM GlcN6P (glucosamine-6-phosphate [1]): < 1e-05 s⁻¹ | self-cleavage kobs at 640 uM GlcN6P (glucosamine-6-phosphate [3]): 7.01e-05 ± 2.6e-05 s⁻¹

C8G G40A
self-cleavage kobs at 40 uM GlcN6P (glucosamine-6-phosphate [1]): < 1e-05 s⁻¹ | self-cleavage kobs at 160 uM GlcN6P (glucosamine-6-phosphate [2]): < 1e-05 s⁻¹ | self-cleavage kobs at 2500 uM GlcN6P (glucosamine-6-phosphate [4]): < 1e-05 s⁻¹ | self-cleavage kobs at 10000 uM GlcN6P (glucosamine-6-phosphate [5]): < 1e-05 s⁻¹

G7C A48U C70G
self-cleavage kobs at 40 uM GlcN6P (glucosamine-6-phosphate [1]): < 1e-05 s⁻¹ | self-cleavage kobs at 10000 uM GlcN6P (glucosamine-6-phosphate [5]): < 1e-05 s⁻¹
